From US11932908B2, “Compositions and methods for diagnosis and treatment of epilepsy” (THE REGENTS OF THE UNIVERSITY OF CALIFORNIA, priority 2004, dated 2024)
Entries after “also recorded” stand apart in the source; their conditions may differ.

How the values were obtained:
[1] = tested on: mouse hippocampal primary culture neurons; conditions: 24, 36 and 48 hours after transfection; mutants compared to wild-type EFHC1
Procedure: Mouse hippocampal neurons primary culture. Hippocampal neurons were isolated from embryonic day 16 mice and plated at 1-2×10^5 cells per well in 24 well plate containing glass coverslips coated with poly-1-lysine and grown in serum-free NEUROBASAL™ media supplemented with B27, 0.5 mM L-glutamine (Invitrogen).
Transfection and immunostaining of mouse hippocampal neurons. […] Cultures were fixed with 4% paraformaldehyde in PBS 16 and 48 hours after transfection, permeabilized with 0.3% Triton X-100, blocked in 3% normal goat serum in PBS, and treated with mouse monoclonal anti-MAP-2 antibody (1:500; Sigma) and Alexa fluor 594 goat anti-mouse IgG antibody (1:1000; Molecular Probes).
TUNEL assay. […] Forty-eight hours after transfection, neuronal apoptosis was detected using DeadEndTM Fluorometric TUNEL System (Promega). Nuclei were visualized with Hoescht 33342 (Molecular Probes). These cells were also stained with anti-Myc antibody (1:200; Cell Signaling) and Alexa fluor 594 goat anti-rabbit IgG antibody (1:1000). All experiments were carried out in duplicate wells and at least repeated three times. Neuron cells were observed on a confocal microscope (OLYMPUS FLUOVIEW) following 48 hours post transfection.
Cell death analyses with EFHC1 mutants. […] Surviving cell numbers were scored by counting GFP fluorescent-positive cells that attached to dishes. At each counting, detached cells (dead cells) were carefully removed by changing culture medium. Morphologies of cells (cell shape, length and number of neurites, shrinkage, etc.) were not considered for the counting. Surviving cell numbers were scored at 24, 36, and 48 hours after transfection. Analyses were repeated twice by using two independently prepared expression construct DNAs. In total, neurons in seven wells of 24 well plates were counted for each transfection and time point. Experiments were performed in a blinded fashion.

PQ type VDCC (Cav2.1) = target: T1, PQ type VDCC (Cav2.1) (Oryctolagus cuniculus, UniProt P27884); test: Patch-clamp analyses of HEK cell line with P/Q type VDCCs and wild type EFHC1 or mutant constructs; assay type: cell-based; conditions: for Activation V0.5 (mV): half-maximal voltage of activation; for Activation V0.5 (mV) / Inactivation V0.5 (mV) / Activation k (mV) / Inactivation K (mV): mean ± SEM; for Inactivation V0.5 (mV): half-maximal voltage of inactivation; for inactivation speed of P/Q type VDCC (decelerating effect on calcium inactivation): patch-clamp; for Activation k (mV) / Inactivation K (mV): slope factor
T1 construct: expressed in transfected cells; host or cells: HEK cell line
T1 sequence (P27884 whole entry): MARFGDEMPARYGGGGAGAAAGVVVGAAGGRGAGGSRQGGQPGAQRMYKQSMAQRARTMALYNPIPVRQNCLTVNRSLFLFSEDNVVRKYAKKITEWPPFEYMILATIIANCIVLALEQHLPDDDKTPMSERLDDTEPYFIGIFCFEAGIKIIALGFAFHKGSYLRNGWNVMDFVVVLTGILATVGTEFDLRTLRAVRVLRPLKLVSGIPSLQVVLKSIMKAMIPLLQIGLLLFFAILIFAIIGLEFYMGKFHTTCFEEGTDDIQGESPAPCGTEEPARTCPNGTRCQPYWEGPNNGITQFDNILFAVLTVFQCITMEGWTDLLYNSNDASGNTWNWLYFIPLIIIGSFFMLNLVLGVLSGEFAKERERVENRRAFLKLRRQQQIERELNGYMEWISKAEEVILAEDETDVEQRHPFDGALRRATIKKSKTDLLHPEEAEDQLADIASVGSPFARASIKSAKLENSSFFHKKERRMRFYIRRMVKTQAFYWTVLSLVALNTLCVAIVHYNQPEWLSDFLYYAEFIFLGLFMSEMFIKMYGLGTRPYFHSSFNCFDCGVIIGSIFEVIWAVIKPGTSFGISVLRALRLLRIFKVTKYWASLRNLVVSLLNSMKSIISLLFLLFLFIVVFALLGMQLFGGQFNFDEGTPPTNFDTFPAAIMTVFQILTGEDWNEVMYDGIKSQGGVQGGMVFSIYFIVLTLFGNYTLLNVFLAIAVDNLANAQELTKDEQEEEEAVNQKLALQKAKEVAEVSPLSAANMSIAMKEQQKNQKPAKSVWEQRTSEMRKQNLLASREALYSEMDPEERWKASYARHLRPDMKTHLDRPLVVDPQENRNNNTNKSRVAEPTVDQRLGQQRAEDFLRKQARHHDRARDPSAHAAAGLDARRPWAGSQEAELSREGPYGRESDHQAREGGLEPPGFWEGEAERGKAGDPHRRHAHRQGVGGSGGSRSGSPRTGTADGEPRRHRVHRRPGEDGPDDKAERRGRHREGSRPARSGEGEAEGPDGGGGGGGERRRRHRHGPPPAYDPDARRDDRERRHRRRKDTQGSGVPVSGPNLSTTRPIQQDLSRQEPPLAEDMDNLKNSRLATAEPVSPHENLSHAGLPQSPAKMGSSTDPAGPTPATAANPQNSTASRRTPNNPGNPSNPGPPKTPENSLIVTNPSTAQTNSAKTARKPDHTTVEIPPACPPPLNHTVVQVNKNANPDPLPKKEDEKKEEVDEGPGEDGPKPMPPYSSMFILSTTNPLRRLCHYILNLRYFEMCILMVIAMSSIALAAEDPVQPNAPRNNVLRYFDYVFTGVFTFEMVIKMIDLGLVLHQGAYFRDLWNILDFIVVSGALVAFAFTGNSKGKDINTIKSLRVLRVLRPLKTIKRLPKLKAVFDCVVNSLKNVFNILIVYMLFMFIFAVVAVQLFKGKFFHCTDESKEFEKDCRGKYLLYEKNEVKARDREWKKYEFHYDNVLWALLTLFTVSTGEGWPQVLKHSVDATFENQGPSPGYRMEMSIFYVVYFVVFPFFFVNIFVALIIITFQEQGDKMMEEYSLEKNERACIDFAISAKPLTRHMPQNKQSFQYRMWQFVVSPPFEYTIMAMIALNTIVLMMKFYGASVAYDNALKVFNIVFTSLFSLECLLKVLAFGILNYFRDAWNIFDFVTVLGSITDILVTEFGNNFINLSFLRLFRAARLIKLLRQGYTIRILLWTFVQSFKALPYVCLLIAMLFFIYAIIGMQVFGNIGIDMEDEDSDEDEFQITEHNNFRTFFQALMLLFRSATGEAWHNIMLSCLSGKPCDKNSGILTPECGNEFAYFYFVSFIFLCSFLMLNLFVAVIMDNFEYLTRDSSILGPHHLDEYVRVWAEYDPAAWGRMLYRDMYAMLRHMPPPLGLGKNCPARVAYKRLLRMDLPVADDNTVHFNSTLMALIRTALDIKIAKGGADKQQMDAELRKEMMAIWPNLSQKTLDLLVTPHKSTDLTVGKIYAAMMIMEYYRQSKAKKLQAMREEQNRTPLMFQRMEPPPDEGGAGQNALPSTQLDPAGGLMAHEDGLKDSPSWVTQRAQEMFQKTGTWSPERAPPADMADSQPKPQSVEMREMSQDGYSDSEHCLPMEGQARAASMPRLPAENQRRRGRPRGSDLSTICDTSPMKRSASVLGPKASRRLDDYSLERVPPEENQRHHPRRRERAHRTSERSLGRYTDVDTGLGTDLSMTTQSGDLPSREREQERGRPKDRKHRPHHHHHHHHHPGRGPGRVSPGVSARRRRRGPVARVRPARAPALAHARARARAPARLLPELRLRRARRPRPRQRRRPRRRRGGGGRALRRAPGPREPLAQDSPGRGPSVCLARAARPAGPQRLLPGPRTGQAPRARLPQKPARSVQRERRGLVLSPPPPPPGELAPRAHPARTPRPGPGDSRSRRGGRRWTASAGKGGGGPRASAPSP
T1 sequence (P13806 27-1106 partner): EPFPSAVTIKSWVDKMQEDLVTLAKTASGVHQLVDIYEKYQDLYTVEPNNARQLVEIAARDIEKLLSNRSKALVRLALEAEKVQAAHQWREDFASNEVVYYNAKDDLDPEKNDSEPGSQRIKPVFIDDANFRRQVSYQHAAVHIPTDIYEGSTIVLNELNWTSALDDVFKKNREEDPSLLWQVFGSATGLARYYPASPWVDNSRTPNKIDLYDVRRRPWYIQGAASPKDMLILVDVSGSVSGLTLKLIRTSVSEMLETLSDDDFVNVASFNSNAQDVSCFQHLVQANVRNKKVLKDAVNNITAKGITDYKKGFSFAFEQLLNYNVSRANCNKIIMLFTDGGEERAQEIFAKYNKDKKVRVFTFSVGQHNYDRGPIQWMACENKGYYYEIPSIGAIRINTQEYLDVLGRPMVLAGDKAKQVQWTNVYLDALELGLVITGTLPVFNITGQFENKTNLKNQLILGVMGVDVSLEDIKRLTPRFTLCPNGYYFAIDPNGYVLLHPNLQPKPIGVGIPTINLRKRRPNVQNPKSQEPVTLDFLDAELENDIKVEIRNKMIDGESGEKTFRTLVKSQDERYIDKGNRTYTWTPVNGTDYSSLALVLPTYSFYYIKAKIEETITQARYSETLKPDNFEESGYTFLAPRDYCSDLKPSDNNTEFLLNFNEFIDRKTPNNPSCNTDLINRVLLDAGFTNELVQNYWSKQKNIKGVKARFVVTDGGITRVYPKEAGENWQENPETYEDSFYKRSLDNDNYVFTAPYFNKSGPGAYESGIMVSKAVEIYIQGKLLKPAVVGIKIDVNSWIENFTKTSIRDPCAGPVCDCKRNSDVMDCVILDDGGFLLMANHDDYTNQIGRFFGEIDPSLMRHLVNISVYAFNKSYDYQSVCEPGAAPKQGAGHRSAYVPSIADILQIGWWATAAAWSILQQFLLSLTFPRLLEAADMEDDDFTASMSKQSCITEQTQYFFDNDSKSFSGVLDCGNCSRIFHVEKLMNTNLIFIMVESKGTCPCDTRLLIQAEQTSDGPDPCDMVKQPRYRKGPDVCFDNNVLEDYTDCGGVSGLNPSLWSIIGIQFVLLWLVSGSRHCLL
T1 sequence (P19517 whole entry partner): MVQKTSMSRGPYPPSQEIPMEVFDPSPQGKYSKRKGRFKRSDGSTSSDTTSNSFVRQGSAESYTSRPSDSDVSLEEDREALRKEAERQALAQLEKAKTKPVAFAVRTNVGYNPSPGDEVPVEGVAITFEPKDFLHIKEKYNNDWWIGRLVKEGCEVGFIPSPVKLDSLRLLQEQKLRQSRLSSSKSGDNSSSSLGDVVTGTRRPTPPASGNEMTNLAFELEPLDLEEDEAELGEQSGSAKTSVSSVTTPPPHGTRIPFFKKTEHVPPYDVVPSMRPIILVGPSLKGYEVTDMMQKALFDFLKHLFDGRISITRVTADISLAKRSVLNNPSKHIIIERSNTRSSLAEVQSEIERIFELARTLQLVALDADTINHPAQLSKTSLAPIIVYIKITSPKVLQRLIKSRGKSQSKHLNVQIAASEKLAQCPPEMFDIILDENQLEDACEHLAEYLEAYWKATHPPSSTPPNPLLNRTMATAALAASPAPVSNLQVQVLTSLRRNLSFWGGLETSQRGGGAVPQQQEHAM

Activation V0.5 (mV) (PQ type VDCC (Cav2.1))	Inactivation V0.5 (mV) (PQ type VDCC (Cav2.1))	inactivation speed of P/Q type VDCC (decelerating effect on calcium inactivation) (PQ type VDCC (Cav2.1))	Activation k (mV) (PQ type VDCC (Cav2.1))	Inactivation K (mV) (PQ type VDCC (Cav2.1))	Ca2+ current density of P/Q-type VDCC (Cav2.1) (PQ type VDCC (Cav2.1); cells co-transfected with P/Q-type VDCC and EFHC1 constructs)	Molecule	cell-death effect (GFP-positive surviving cell numbers) [1]
						P77T/R221H: EFHC1 protein with the double mutation P77T and R221H (protein) MVSNPVHGLPFLPGTSFKDSTKTAFHRSQTLSYRNGYAIVRRPTVGIGGDRLQFNQLSQAELDELASKAPVLTYGQTKQAPPADFIPAHVAFDKKVLKFDAYFQEDVPMSTEEQYRIRQVNIYYYLEDDSMSVIEPVVENSGILQGKLIKRQRLAKNDRGDHYHWKDLNRGINITIYGKTFRVVDCDQFTQVFLESQGIELNPPEKMALDPYTELRKQPLHKYVTPSDFDQLKQFLTFDKQVLRFYAIWDDTDSMYGECRTYIIHYYLMDDTVEIREVHERNDGRDPFPLLMNRQRVPKVLVENAKNFPQCVLEISDQEVLEWYTAKDFIVGKSLTILGRTFFIYDCDPFTRRYYKEKFGITDLPRIDVSKREPPPVKQELPPYNGFGLVEDSAQNCFTLIPKAPKKDVIKMLVNDNKVLRYLAVLESPIPEDKDRRFVFSYFLATDMISIFEPPVRNSGIIGGKYLGRTKVVKPYSTVDNPVYYGPSDFFIGAVIEVFGHRFIILDTDEYVLKYMESNAAQYSPEALASIQNHVRKREAPAPEAESKQTEKDPGVQELEALIDTIQKQLKDHSCKDNIREAFQIYDKEASGYVDRDMFFKICESLNVPVDDSLVKELIRMCSHGEGKINYYNFVRAFSN	significantly reduced; also recorded: significantly reversed
17.7 ± 1.9 mV	−17.0 ± 2.5 mV	abolished the decelerating effect	7.08 ± 0.81 mV	7.00 ± 0.27 mV		R221H: EFHC1 protein with JME missense mutation R221H (Arg221His) (protein) MVSNPVHGLPFLPGTSFKDSTKTAFHRSQTLSYRNGYAIVRRPTVGIGGDRLQFNQLSQAELDELASKAPVLTYGQPKQAPPADFIPAHVAFDKKVLKFDAYFQEDVPMSTEEQYRIRQVNIYYYLEDDSMSVIEPVVENSGILQGKLIKRQRLAKNDRGDHYHWKDLNRGINITIYGKTFRVVDCDQFTQVFLESQGIELNPPEKMALDPYTELRKQPLHKYVTPSDFDQLKQFLTFDKQVLRFYAIWDDTDSMYGECRTYIIHYYLMDDTVEIREVHERNDGRDPFPLLMNRQRVPKVLVENAKNFPQCVLEISDQEVLEWYTAKDFIVGKSLTILGRTFFIYDCDPFTRRYYKEKFGITDLPRIDVSKREPPPVKQELPPYNGFGLVEDSAQNCFTLIPKAPKKDVIKMLVNDNKVLRYLAVLESPIPEDKDRRFVFSYFLATDMISIFEPPVRNSGIIGGKYLGRTKVVKPYSTVDNPVYYGPSDFFIGAVIEVFGHRFIILDTDEYVLKYMESNAAQYSPEALASIQNHVRKREAPAPEAESKQTEKDPGVQELEALIDTIQKQLKDHSCKDNIREAFQIYDKEASGYVDRDMFFKICESLNVPVDDSLVKELIRMCSHGEGKINYYNFVRAFSN	significantly reversed
						R182H: EFHC1 protein with coding polymorphism R182H (Arg182His) (protein) MVSNPVHGLPFLPGTSFKDSTKTAFHRSQTLSYRNGYAIVRRPTVGIGGDRLQFNQLSQAELDELASKAPVLTYGQPKQAPPADFIPAHVAFDKKVLKFDAYFQEDVPMSTEEQYRIRQVNIYYYLEDDSMSVIEPVVENSGILQGKLIKRQRLAKNDRGDHYHWKDLNRGINITIYGKTFHVVDCDQFTQVFLESQGIELNPPEKMALDPYTELRKQPLRKYVTPSDFDQLKQFLTFDKQVLRFYAIWDDTDSMYGECRTYIIHYYLMDDTVEIREVHERNDGRDPFPLLMNRQRVPKVLVENAKNFPQCVLEISDQEVLEWYTAKDFIVGKSLTILGRTFFIYDCDPFTRRYYKEKFGITDLPRIDVSKREPPPVKQELPPYNGFGLVEDSAQNCFTLIPKAPKKDVIKMLVNDNKVLRYLAVLESPIPEDKDRRFVFSYFLATDMISIFEPPVRNSGIIGGKYLGRTKVVKPYSTVDNPVYYGPSDFFIGAVIEVFGHRFIILDTDEYVLKYMESNAAQYSPEALASIQNHVRKREAPAPEAESKQTEKDPGVQELEALIDTIQKQLKDHSCKDNIREAFQIYDKEASGYVDRDMFFKICESLNVPVDDSLVKELIRMCSHGEGKINYYNFVRAFSN	largely maintained
						1619L: EFHC1 protein with coding polymorphism I619L (protein, UniProt Q5JVL4 1-640, looked up, variant I619L) EF-hand domain-containing …: MVSNPVHGLPFLPGTSFKDSTKTAFHRSQTLSYRNGYAIVRRPTVGIGGDRLQFNQLSQAELDELASKAPVLTYGQPKQAPPADFIPAHVAFDKKVLKFDAYFQEDVPMSTEEQYRIRQVNIYYYLEDDSMSVIEPVVENSGILQGKLIKRQRLAKNDRGDHYHWKDLNRGINITIYGKTFRVVDCDQFTQVFLESQGIELNPPEKMALDPYTELRKQPLRKYVTPSDFDQLKQFLTFDKQVLRFYAIWDDTDSMYGECRTYIIHYYLMDDTVEIREVHERNDGRDPFPLLMNRQRVPKVLVENAKNFPQCVLEISDQEVLEWYTAKDFIVGKSLTILGRTFFIYDCDPFTRRYYKEKFGITDLPRIDVSKREPPPVKQELPPYNGFGLVEDSAQNCFALIPKAPKKDVIKMLVNDNKVLRYLAVLESPIPEDKDRRFVFSYFLATDMISIFEPPVRNSGIIGGKYLGRTKVVKPYSTVDNPVYYGPSDFFIGAVIEVFGHRFIILDTDEYVLKYMESNAAQYSPEALASIQNHVRKREAPAPEAESKQTEKDPGVQELEALIDTIQKQLKDHSCKDNIREAFQIYDKEASGYVDRDMFFKICESLNVPVDDSLVKELLRMCSHGEGKINYYNFVRAFSN	largely maintained
24.1 ± 1.4 mV	−9.4 ± 1.4 mV	did not significantly affect	9.08 ± 0.71 mV	6.44 ± 0.33 mV		D210N: EFHC1 protein with JME missense mutation D210N (Asp210Asn) (protein) MVSNPVHGLPFLPGTSFKDSTKTAFHRSQTLSYRNGYAIVRRPTVGIGGDRLQFNQLSQAELDELASKAPVLTYGQPKQAPPADFIPAHVAFDKKVLKFDAYFQEDVPMSTEEQYRIRQVNIYYYLEDDSMSVIEPVVENSGILQGKLIKRQRLAKNDRGDHYHWKDLNRGINITIYGKTFRVVDCDQFTQVFLESQGIELNPPEKMALNPYTELRKQPLRKYVTPSDFDQLKQFLTFDKQVLRFYAIWDDTDSMYGECRTYIIHYYLMDDTVEIREVHERNDGRDPFPLLMNRQRVPKVLVENAKNFPQCVLEISDQEVLEWYTAKDFIVGKSLTILGRTFFIYDCDPFTRRYYKEKFGITDLPRIDVSKREPPPVKQELPPYNGFGLVEDSAQNCFTLIPKAPKKDVIKMLVNDNKVLRYLAVLESPIPEDKDRRFVFSYFLATDMISIFEPPVRNSGIIGGKYLGRTKVVKPYSTVDNPVYYGPSDFFIGAVIEVFGHRFIILDTDEYVLKYMESNAAQYSPEALASIQNHVRKREAPAPEAESKQTEKDPGVQELEALIDTIQKQLKDHSCKDNIREAFQIYDKEASGYVDRDMFFKICESLNVPVDDSLVKELIRMCSHGEGKINYYNFVRAFSN	significantly reversed
						R159W: EFHC1 protein with coding polymorphism R159W (Arg159Trp) (protein) MVSNPVHGLPFLPGTSFKDSTKTAFHRSQTLSYRNGYAIVRRPTVGIGGDRLQFNQLSQAELDELASKAPVLTYGQPKQAPPADFIPAHVAFDKKVLKFDAYFQEDVPMSTEEQYRIRQVNIYYYLEDDSMSVIEPVVENSGILQGKLIKRQRLAKNDWGDHYHWKDLNRGINITIYGKTFRVVDCDQFTQVFLESQGIELNPPEKMALDPYTELRKQPLRKYVTPSDFDQLKQFLTFDKQVLRFYAIWDDTDSMYGECRTYIIHYYLMDDTVEIREVHERNDGRDPFPLLMNRQRVPKVLVENAKNFPQCVLEISDQEVLEWYTAKDFIVGKSLTILGRTFFIYDCDPFTRRYYKEKFGITDLPRIDVSKREPPPVKQELPPYNGFGLVEDSAQNCFTLIPKAPKKDVIKMLVNDNKVLRYLAVLESPIPEDKDRRFVFSYFLATDMISIFEPPVRNSGIIGGKYLGRTKVVKPYSTVDNPVYYGPSDFFIGAVIEVFGHRFIILDTDEYVLKYMESNAAQYSPEALASIQNHVRKREAPAPEAESKQTEKDPGVQELEALIDTIQKQLKDHSCKDNIREAFQIYDKEASGYVDRDMFFKICESLNVPVDDSLVKELIRMCSHGEGKINYYNFVRAFSN	largely maintained
23.0 ± 3.2 mV	−15.8 ± 1.4 mV	abolished the decelerating effect	8.87 ± 1.67 mV	6.59 ± 0.44 mV	moderately increased	P77T: EFHC1 protein with JME missense mutation P77T (Pro77Thr) (protein) MVSNPVHGLPFLPGTSFKDSTKTAFHRSQTLSYRNGYAIVRRPTVGIGGDRLQFNQLSQAELDELASKAPVLTYGQTKQAPPADFIPAHVAFDKKVLKFDAYFQEDVPMSTEEQYRIRQVNIYYYLEDDSMSVIEPVVENSGILQGKLIKRQRLAKNDRGDHYHWKDLNRGINITIYGKTFRVVDCDQFTQVFLESQGIELNPPEKMALDPYTELRKQPLRKYVTPSDFDQLKQFLTFDKQVLRFYAIWDDTDSMYGECRTYIIHYYLMDDTVEIREVHERNDGRDPFPLLMNRQRVPKVLVENAKNFPQCVLEISDQEVLEWYTAKDFIVGKSLTILGRTFFIYDCDPFTRRYYKEKFGITDLPRIDVSKREPPPVKQELPPYNGFGLVEDSAQNCFTLIPKAPKKDVIKMLVNDNKVLRYLAVLESPIPEDKDRRFVFSYFLATDMISIFEPPVRNSGIIGGKYLGRTKVVKPYSTVDNPVYYGPSDFFIGAVIEVFGHRFIILDTDEYVLKYMESNAAQYSPEALASIQNHVRKREAPAPEAESKQTEKDPGVQELEALIDTIQKQLKDHSCKDNIREAFQIYDKEASGYVDRDMFFKICESLNVPVDDSLVKELIRMCSHGEGKINYYNFVRAFSN	significantly reversed
